# ± gives the standard error. This sample holds only a part of the variants without activity.
# B1: glmS ribozyme (parent)
# chain: AUAAAAGCGCCAGAACUACAGAAAUGUAGUUGACGAGGAGGAGGUUUAUCGAAUUUUCGGCGGAUGCCUCCAAA
# Variants of: B1
# Assay: self-cleavage kobs at 2500 uM GlcN6P; higher = faster cleavage; RNA array
# Settings: with glucosamine-6-phosphate
# Method in brief: (§1)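 Sequenced MiSeq chips were the platform: E. coli RNA polymerase transcribed barcoded ribozyme variants on them in situ, and a hybridised Cy3 probe tracked these at 37 °C. After glucosamine-6-phosphate (40 μM to 10 mM) in HEPES/KCl/Mg(OAc)2 buffer was flowed in, tiles were imaged over ~14 h. Signals normalised to baseline and to non-cleaving reference variants were reduced to per-tile medians and fit to one- or two-exponential decays to obtain kobs. kcat and KM were derived through weighted Michaelis–Menten fits across concentrations.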
row,Variant,self-cleavage kobs at 2500 uM GlcN6P
1,AUAAAAGCGCCAGAACUACAGAAAUGUAGUGGACGAGGAGGAGGUUUAUCGAAUUUUCGGCGGAUGCCUCCGAA,0.00235 ± 0.00096 s⁻¹
2,AUAAAAGCGCCAGAACUACAGAAAUGUAGUUGUAGAGGAGGAGUUUUAUCGCAUUUUCGGCGGAUGCCUCCAAA,< 1e-05 s⁻¹
3,AUAAAAGCGCCAGAACUACAGAAAUGUAGUUCUCGAGGAUGAGGUUUAUCGAAUUUUCGGCGGAUGCCUCCAAA,< 1e-05 s⁻¹
4,AUAAAAGCGCCAGAACUACAGAAAUGUAGUUUACGAGGAGGGGGUUUAUCGAAUUUUGGGCGGAUGCCUUCAAA,0.000198 ± 8.4e-05 s⁻¹
5,AUAAAAGCGCCAGAACUACAGAAAUGUAGUUGCCAAGCAGGAGGUUUAUCGUAUUUUCGGCGGACGCGUCCAAA,< 1e-05 s⁻¹
6,AUAAAAGCGCCAGAACUACAGAAAUGUAGUUGUCGAGGAGGGGGUUUAUCGAAUUUUCGGAGGAUACCUCCAAA,< 1e-05 s⁻¹
7,AUAAAAGCGCCAGAACUACAGAAAUGUAGUGGACGAGGAGGAGGUUUAUCGAAUUUUCGGCGGAUGCGUGCAAA,< 1e-05 s⁻¹
8,AUAAAAGCGCCAGAACUACAGAAAUGUAGUUGUGGUGGAGGAGGUUUAUCGAAUUUUCGGCGGAUGUCUCCAAA,< 1e-05 s⁻¹
9,AUAAAAGCGCCAGAACUACAGAAAUGUAGUUUACGAGGAGGAGGUUUAUCGAACUUUCCGCGGAUGCUUCCAAA,< 1e-05 s⁻¹
10,AUAAAAGCGCCAGAACUACAGAAAUGUAGUUGCCGAGAAGGAGGUUUAUCGAAUUUUUGGCGGACGCCUCCAAA,< 1e-05 s⁻¹
11,AUAAAAGCGCCAGAACUACAGAAAUGUAGUUUACGAGGAGGCGGUUUAUCGACUAUUCGGCGGAUGCCUCCAAA,< 1e-05 s⁻¹
12,AUAAAAGCGCCAGAACUACAGAAAUGUAGUUUACGAGGAGGGGGUUUAUCGAAUCCUGGGCGGAUGCCUCCAAA,5.49e-05 ± 1.3e-05 s⁻¹
13,AUAAAAGCGCCAGAACUACAGAAAUGUAGUUCACGAGGAGGAGGUUUAUGGAAUUUUCGGCGGAUGGCUCCAAA,4.82e-05 ± 1.8e-05 s⁻¹
14,AUAAAAGCGCCAGAACUACAGAAAUGUAGUUCACGAGAAGGAGGUUAAUCGAAUUUUUGGCGGCUGCCGCCAAA,0.000153 ± 4.8e-05 s⁻¹
15,AUAAAAGCGCCAGAACUACAGAAAUGUAGUUGGCGAGGAGGGGGUUUAUCGGAUUUUCGCCGGAUGCCUCCAAA,< 1e-05 s⁻¹
16,AUAAAAGCGCCAGAACUACAGAAAUGUAGUUUACGAGGAGGAGGUAUAUUGAAUUUUCGGCGGAUGCCUCCAAA,< 1e-05 s⁻¹
17,AUAAAAGCGCCAGAACUACAGAAAUGUAGUGGACGAGGAGGAGGUUUAGCGAAUUUUCCGCGGAUGCCUCCAAA,< 1e-05 s⁻¹

row,Variant,self-cleavage kobs at 2500 uM GlcN6P
1,AUAAAAGCGCCAGAACUACAGAAAUGUAGUUGCCGCGUAGAAGGUUUAUCGAAUUUUCGGCGGAUCCCUCCAAA,< 1e-05 s⁻¹
2,AUAAAAGCGCCAGAACUACAGAAAUGUAGUUGCCGAUGAGGGGUUUUAUCGAAUUUUCGGCGGGUUCCUCCAAA,< 1e-05 s⁻¹
3,AUAAAAGCGCCAGAACUACAGAAAUGUAGUUAACGAGGAGGAGGUUUAUCGAAAUUUCGGCGGAUGCCUGCAAA,0.000378 ± 5.3e-05 s⁻¹
4,AUAAAAGCGCCAGAACUACAGAAAUGUAGUGACCGAGGAGAAGGUUUGUCGAAUUUUCGGCGGAUGCCUCCAAA,< 1e-05 s⁻¹
5,AUAAAAGCGCCAGAACUACAGAAAUGUAGUUGGCGAGGAGGAGGUGUAUCGAAUUUUCGGCGGAUGCCUUCAAA,< 1e-05 s⁻¹
6,AUAAAAGCGCCAGAACUACAGAAAUGUAGUUCACGAGGAGGAGGUUUAUCGAACUUUCGGCGGAUGCCUCCAAA,1.41e-05 ± 5.6e-06 s⁻¹
7,AUAAAAGCGCCAGAACUACAGAAAUGUAGUUUACGAGGAGGAGGUUUCUCCAAUUUUCGGCGGAUGCCUCCAAA,< 1e-05 s⁻¹
8,AUAAAAGCGCCAGAACUACAGAAAUGUAGUUGCCGAGGAGGAGGUUUAGCGAAUUUUCGGCGGAUGCCCCCAAA,< 1e-05 s⁻¹
9,AUAAAAGCGCCAGAACUACAGAAAUGUAGUUGUCGAGGAGGAGGUUUAUCGCAUUUUCGGCGCAUGCCUCCAAA,< 1e-05 s⁻¹
10,AUAAAAGCGCCAGAACUACAGAAAUGUAGUUCACGAGGAGAAGGUUUAUCGAAUUUUCGGCGAAUGCCUUCAAA,< 1e-05 s⁻¹
11,AUAAAAGCGCCAGAACUACAGAAAUGUAGUUGGCGAGGAGGAGGUUUAUCGAAUUGUCCGCGGAUGCCUCCAAA,< 1e-05 s⁻¹
12,AUAAAAGCGCCAGAACUACAGAAAUGUAGUUAACGAGGAGGAGGUUUAUCGAAUUUUUGGCGGAUGCGUCCAAA,0.000103 ± 3.5e-05 s⁻¹
13,AUAAAAGCGCCAGAACUACAGAAAUGUAGUUCACGAGGAGGAGACUUAUCGAAUUUUCGGCGGAUGCCUCCAAA,< 1e-05 s⁻¹
14,AUAAAAGCGCCAGAACUACAGAAAUGUAGUUUACGAGGAGGAGGUCUAUCGAAUUUUCGGCGGAUGCAUCUAAA,< 1e-05 s⁻¹
15,AUAAAAGCGCCAGAACUACAGAAAUGUAGUUCACGUGGAGGAGGUUUAUCGACUUUUCGGCGGAUGCCUCCAAA,< 1e-05 s⁻¹
16,AUAAAAGCGCCAGAACUACAGAAAUGUAGUCGACGAGGAGGAGGUUUAUCGAAUUAUCGGCGGAUGUCUCCAAA,0.000427 ± 0.00012 s⁻¹

# Variants of: B1
# Assay: self-cleavage kobs at 10000 uM GlcN6P; higher = faster cleavage; RNA array
# Settings: with glucosamine-6-phosphate
# Method in brief: as §1
row,Variant,self-cleavage kobs at 10000 uM GlcN6P
1,AUAAAAGCGCCAGAACUACAGAAAUGUAGUGGACGAGGAGGAGGUUUAUCGAAUUUUCGGCGGAUGCCUCCGAA,0.00988 ± 0.0032 s⁻¹
2,AUAAAAGCGCCAGAACUACAGAAAUGUAGUUGGCGAGGAGGAGGUGUAUCGAAUUUUCGGCGGAUGCCUUCAAA,< 1e-05 s⁻¹
3,AUAAAAGCGCCAGAACUACAGAAAUGUAGUUCACGAGGAGGAGGUUUAUCGAACUUUCGGCGGAUGCCUCCAAA,8.23e-05 ± 1.2e-05 s⁻¹
4,AUAAAAGCGCCAGAACUACAGAAAUGUAGUCGACGAGGAGGAGGUUUAUCGAAUUAUCGGCGGAUGUCUCCAAA,0.000671 ± 0.00015 s⁻¹

# Reference: the supplement of paper PMC7125110
